According to US9925134B2, “Use of substances to protect FGF-2 or FGF-beta growth factor” (BASF Beauty Care Solutions France SAS, priority 2007, dated 2018):

Columns and labels:
FGF-2 = FGF-2 (Homo sapiens, UniProt P09038); assay: Study of thermal degradation (stability) of FGF-2 at various temperatures with or without heparin, ELISA; type: physicochemical; settings: without heparin
Procedure: A 5 ng/ml solution of FGF-2 in a 10 mM PBS buffer with 0.1% BSA and 0.1% of methylparaben is prepared.
This solution is placed at various temperatures: 4° C., 20° C., 37° C., 50° C., and 80° C. either in the presence of heparin or not at 500 μg/ml.
Dosages of FGF-2 with a commercial ELISA kit (R&D system, France) are performed at different times (T=0, 3 hrs, 24 hrs and 48 hrs) so as to establish degradation kinetics for each temperature of investigation.
The results are expressed as a percentage of FGF-2 relative to time T=0. The experiments are conducted in triplicates (n=3). The obtained results are illustrated in FIGS. 1 and 2.

[1] = test system: normal human dermal fibroblasts; assay: Fibroblast proliferation by FGF-2 protected by heparin or extract 5c (PNPP); type: cell-based; settings: for Proliferation (expressed as percent relative to the non-treated well): 48 hrs, heparin 0.01% during 24 hrs at 37° C.
Procedure: A solution of FGF-2 is prepared extemporaneously (=non-degraded FGF-2); a solution of FGF-2 is placed for 24 hrse at 37° C. in the absence (=degraded FGF-2) and in the presence of heparin (=FGF-2+heparin at 37° C.) at 0.01%.
Each FGF-2 solution is diluted so as to be applied on the cells, the final FGF-2 concentrations being the following: 0.1, 0.25, 0.5, 0.75 and 1 ng/ml.
Normal human dermal fibroblasts were sown at low density in 6-well plates. They were then grown in a medium in the absence (control) or in the presence of FGF-2 at various concentrations.
After 48 hrs, the activity of intracellular acid phosphatases (PNPP) is dosed, so as to be able to evaluate the effect of FGF-2 solutions, either treated or not, on cell proliferation.
The results are expressed as a proliferation percentage relative to the control well i.e. to the non-treated well.
The same experiment was conducted by replacing heparin with extract 5c. The FGF-2 solution put into the presence of 0.5% of extract 5c is placed for 24 hrs at 37° C. The solution is then diluted so as to apply 0.5 ng/ml of FGF-2 in the wells containing the fibroblasts.
The 5c extract concentration finally applied on the cells is 0.0025%. It was checked beforehand that this 5c extract concentration was not capable of inducing stimulation of the proliferation of fibroblasts. This means that the observed stimulation of proliferation is actually due to the protection of FGF-2 by extract 5c (see Table 8).

cathepsin G = target: T1, cathepsin G (Homo sapiens, UniProt P08311); assay: Degradation kinetics of FGF-2 by cathepsin G; type: biochemical; settings: for FGF-2 concentration in the presence of cathepsin G / FGF-2 concentration Temperature control: 37° C.; for FGF-2 concentration in the presence of cathepsin G: cathepsin G 0.02 U per well; for FGF-2 concentration Temperature control: enzyme-free; for Degradation % in the presence of cathepsin G: relative to temperature control
T1 sequence (P08311 21-244): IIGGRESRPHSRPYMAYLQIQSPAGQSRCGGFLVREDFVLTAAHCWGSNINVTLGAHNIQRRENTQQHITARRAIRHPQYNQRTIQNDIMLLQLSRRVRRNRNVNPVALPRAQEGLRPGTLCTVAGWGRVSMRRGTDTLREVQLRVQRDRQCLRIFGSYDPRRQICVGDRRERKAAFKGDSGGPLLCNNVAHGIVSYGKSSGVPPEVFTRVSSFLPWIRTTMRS
Procedure: For this reason, a study of the degradation of FGF-2 by cathepsin G was conducted. Degradation kinetics was carried out in a 100 mM Hepes buffer, pH7 containing 0.1% BSA. Cathepsin G was added into the wells of the plate at a concentration of 0.02 U per well to a 2 ng/well FGF-2 solution. The plate was incubated at 37° C. and sampling was performed at 15, 30, 60, 90 and 120 minutes in order to dose the remaining FGF-2.
The control (100%) is made by extemporaneous dosage of FGF-2. At the same time, an enzyme-free control solution is placed at 37° C. in order to study thermal degradation at the different times, so as to get rid of this degradation due to temperature and to quantify the portion only due to enzymatic degradation.

[2] = 37° C.; neutral pH; cited from earlier work

Sequence of FGF-2 (P09038 143-288): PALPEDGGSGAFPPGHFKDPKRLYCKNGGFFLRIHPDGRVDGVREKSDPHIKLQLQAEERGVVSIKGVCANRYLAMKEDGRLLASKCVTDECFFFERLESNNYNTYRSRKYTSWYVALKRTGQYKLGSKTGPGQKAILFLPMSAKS

FGF-2 concentration in the presence of cathepsin G (cathepsin G; 0 minutes): 339.05 ± 7.43 pg/mL
Degradation % in the presence of cathepsin G (cathepsin G; 0 minutes): 13.29%
FGF-2 concentration in the presence of cathepsin G (cathepsin G; 15 minutes): 295.61 ± 8.49 pg/mL
Degradation % in the presence of cathepsin G (cathepsin G; 15 minutes): 8.95%
FGF-2 concentration in the presence of cathepsin G (cathepsin G; 30 minutes): 248.04 ± 1.97 pg/mL
Degradation % in the presence of cathepsin G (cathepsin G; 30 minutes): 14.77%
FGF-2 concentration in the presence of cathepsin G (cathepsin G; 60 minutes): 203.67 ± 1.13 pg/mL
Degradation % in the presence of cathepsin G (cathepsin G; 60 minutes): 27.5%
FGF-2 concentration in the presence of cathepsin G (cathepsin G; 90 minutes): 141.94 ± 5.14 pg/mL
Degradation % in the presence of cathepsin G (cathepsin G; 90 minutes): 45.55%
FGF-2 concentration in the presence of cathepsin G (cathepsin G; 120 minutes): 131.36 ± 2.49 pg/mL
Degradation % in the presence of cathepsin G (cathepsin G; 120 minutes): 45.6%
Substance: FGF-2: Fibroblast Growth Factor; non-degraded = solution of FGF-2 prepared extemporaneously
FGF-2 degraded (percentage relative to T=0) (FGF-2; 4° C., 48 hrs): 20%
FGF-2 degradation (percentage relative to T=0) (FGF-2; 37° C., 3 hrs): 65%
FGF-2 degraded (percentage relative to T=0) (FGF-2; 37° C., 24 hrs): 80%
FGF-2 degradation (percentage relative to T=0) (FGF-2; 50° C., 3 hrs): 80%
FGF-2 degradation (in words) (FGF-2; 80° C., 3 hrs): total degradation
Proliferation (as a percentage) of fibroblasts relative to the non-treated control ([1]; FGF-2 0.5 ng/ml, 0.5% 5c extract during 24 hrs at 37° C. (0.0025% on the cells)): 148.5% ± 0.007
Proliferation (expressed as percent relative to the non-treated well) ([1]; FGF-2 concentration 0.1 ng/ml): 116.7 ± 0.012%
Proliferation (expressed as percent relative to the non-treated well) ([1]; FGF-2 concentration 0.25 ng/ml): 138.7 ± 0.005%
Proliferation (expressed as percent relative to the non-treated well) ([1]; FGF-2 concentration 0.5 ng/ml): 148.5 ± 0.007%
Proliferation (expressed as percent relative to the non-treated well) ([1]; FGF-2 concentration 0.75 ng/ml): 163.2 ± 0.005%
Proliferation (expressed as percent relative to the non-treated well) ([1]; FGF-2 concentration 1 ng/ml): 160 ± 0.003%
FGF-2 concentration Temperature control (cathepsin G; 0 minutes): 391.8 ± 3.64 pg/mL
FGF-2 concentration Temperature control (cathepsin G; 15 minutes): 324.99 ± 1.7 pg/mL
FGF-2 concentration Temperature control (cathepsin G; 30 minutes): 291.83 ± 2.4 pg/mL
FGF-2 concentration Temperature control (cathepsin G; 60 minutes): 280.64 ± 3.23 pg/mL
FGF-2 concentration Temperature control (cathepsin G; 90 minutes): 259.81 ± 4.9 pg/mL
FGF-2 concentration Temperature control (cathepsin G; 120 minutes): 241.67 ± 1.97 pg/mL
half-life time of FGF-2 in vitro [2]: about 24 hours
